Sequences and labels used below:
B1: TF(3A) with mutation set mutC (M140E) (natural protein, E. coli, UniProt P0A850 1-432, looked up)
chain: MQVSVETTQGLGRRVTITIAADSIETAVKSELVNVAKKVRIDGAAAGKVPMNIVAQRYGASVRQDVLGDLMSRNFIDAIIKEKINPAGAPTYVPGEYKLGEDFTYSVEFEVYPEVELQGLEAIEVEKPIVEVTDADVDGELDTLRKQQATWKEKDGAVEAEDRVTIDFTGSVDGEEFEGGKASDFVLAMGQGRMIPGFEDGIKGHKAGEEFTIDVTFPEEYHAENLKGKAAKFAINLKKVEERELPELTAEFIKRFGVEDGSVEGLRAEVRKNMERELKSAIRNRVKSQAIEGLVKANDIDVPAALIDSEIDVLRRQAAQRFGGNEKQALELPRELFEEQAKRRVVVGLLLGEVIRTNELKADEERVKGLIEEMASAYEDPKEVIEFYSKNKELMDNMRNVALEEQAVEAVLAKAKVTEKETTFNELMNQQA
notes: Trigger Factor, E. coli, residues 1-432, TF(3A) background; not shown: His6, N-terminal, cleaved
B2: TF(3A) with mutation set mutD (R316A, R321A) (natural protein, E. coli, UniProt P0A850 1-432, looked up)
chain: B1 chain with E140M, R316A, R321A
notes: as for B1
B3: TF(3A) with mutation sets mutD + mutC (R316A, R321A, M140E) (natural protein, E. coli, UniProt P0A850 1-432, looked up)
chain: B1 chain with R316A, R321A
notes: Trigger Factor, E. coli, residues 1-432, TF(3A) background; also called mutC + mutD; not shown: His6, N-terminal, cleaved
B4: TF(3A) with mutation sets mutB + mutC (M374A, Y378A, V384A, F387A, M140E) (natural protein, E. coli, UniProt P0A850 1-432, looked up)
chain: B1 chain with M374A, Y378A, V384A, F387A
notes: Trigger Factor, E. coli, residues 1-432, TF(3A) background; also called mutC + mutB; not shown: His6, N-terminal, cleaved
B5: TF(3A) with mutation sets mutB + mutD (M374A, Y378A, V384A, F387A, R316A, R321A) (natural protein, E. coli, UniProt P0A850 1-432, looked up)
chain: B1 chain with E140M, R316A, R321A, M374A, Y378A, V384A, F387A
notes: as for B1
B6: TF(3A) variant TF(F44A, R45A, K46A) (natural protein, E. coli, UniProt P0A850 1-432, looked up)
chain: B1 chain with E140M
notes: not shown: His6, N-terminal, cleaved
B7: TF(3A) with mutation set mutB (M374A, Y378A, V384A, F387A) (natural protein, E. coli, UniProt P0A850 1-432, looked up)
chain: B1 chain with E140M, M374A, Y378A, V384A, F387A
notes: as for B1
B8: SBD–PPD (114–432) (domain or fragment, E. coli, UniProt P0A850 114-432, looked up)
chain: EVELQGLEAIEVEKPIVEVTDADVDGMLDTLRKQQATWKEKDGAVEAEDRVTIDFTGSVDGEEFEGGKASDFVLAMGQGRMIPGFEDGIKGHKAGEEFTIDVTFPEEYHAENLKGKAAKFAINLKKVEERELPELTAEFIKRFGVEDGSVEGLRAEVRKNMERELKSAIRNRVKSQAIEGLVKANDIDVPAALIDSEIDVLRRQAAQRFGGNEKQALELPRELFEEQAKRRVVVGLLLGEVIRTNELKADEERVKGLIEEMASAYEDPKEVIEFYSKNKELMDNMRNVALEEQAVEAVLAKAKVTEKETTFNELMNQQA
notes: Trigger Factor, E. coli, residues 114-432; also called bi-domain construct SBD–PPD; not shown: His tag, N-terminal, cleaved
B9: SBD (114–148/247–432) (domain or fragment, E. coli, UniProt P0A850 114-148, looked up)
chain: EVELQGLEAIEVEKPIVEVTDADVDGMLDTLRKQQELTAEFIKRFGVEDGSVEGLRAEVRKNMERELKSAIRNRVKSQAIEGLVKANDIDVPAALIDSEIDVLRRQAAQRFGGNEKQALELPRELFEEQAKRRVVVGLLLGEVIRTNELKADEERVKGLIEEMASAYEDPKEVIEFYSKNKELMDNMRNVALEEQAVEAVLAKAKVTEKETTFNELMNQQA
notes: Trigger Factor, E. coli, residues 114-148 (linker part of the SBD); Trigger Factor, E. coli, residues 247-432 (C-terminal part of the SBD); The PPD (149-246) is left out; not shown: His tag, N-terminal, cleaved
B10: RBD (residues 1–117) (domain or fragment, E. coli, UniProt P0A850 1-117, looked up)
chain: MQVSVETTQGLGRRVTITIAADSIETAVKSELVNVAKKVRIDGFRKGKVPMNIVAQRYGASVRQDVLGDLMSRNFIDAIIKEKINPAGAPTYVPGEYKLGEDFTYSVEFEVYPEVEL
notes: Trigger Factor, E. coli, residues 1-117 (stop codon at position 118); not shown: His tag, N-terminal, cleaved
B11: PPD (149–249) (domain or fragment, E. coli, UniProt P0A850 149-249, looked up)
chain: ATWKEKDGAVEAEDRVTIDFTGSVDGEEFEGGKASDFVLAMGQGRMIPGFEDGIKGHKAGEEFTIDVTFPEEYHAENLKGKAAKFAINLKKVEERELPELT
notes: Trigger Factor, E. coli, residues 149-249; also called peptidyl-prolyl isomerase domain; not shown: His tag, N-terminal, cleaved

Where a chain is given by its changes, count along the chain named. In names and notes the source's numbering stands. Some results are limits rather than exact numbers.

As usually defined, the Kd is the free concentration of one partner at which half of the binding sites on the other are occupied at equilibrium, for simple one-to-one binding. A lower Kd goes with tighter binding.

The first series concerns the molecule itself. Briefly: SEC-MALS; concentration series of full-length TF and full-length mutants alone, 26 °C, sample buffer (20 mM K-phosphate pH 6.5, 100 mM KCl, 0.5 mM EDTA); fit to a fast monomer-dimer equilibrium; dimer to monomers. In general terms: Size exclusion chromatography separates by hydrodynamic size, large species first.
For the protein B1, the Kd was determined as 28 µM.
With B2, the Kd was determined as 22 µM.
The same measure, in the same setting: then B3, with 260 µM.
On the same count and under the same terms, then B4, with > 1000 µM; and B5, with > 1000 µM; and B6, with 1.1 µM.
The same measure, in the same setting: then B7, with > 1000 µM.

The next series concerns the molecule itself. Briefly: SEC-MALS; sample buffer (20 mM K-phosphate pH 6.5, 100 mM KCl, 0.5 mM EDTA); 6 °C for the individual domains; concentration series fitted to a fast monomer–dimer equilibrium; dimer to monomers.
Regarding B8, the Kd was > 1000 µM.
As for B9, the Kd is > 1000 µM.
The same measure, in the same setting: then B10, with ≥ 1500 µM; and B11, with > 5000 µM.

(Values after publication PMC5722895, “The dynamic dimer structure of the chaperone Trigger Factor” (Nature Communications, 2017).)
